# Data from PMC5372246, “Co-production of hydrogen and ethanol from glucose in Escherichia coli by activation of pentose-phosphate pathway through deletion of phosphoglucose isomerase (pgi) and overexpression of glucose-6-phosphate dehydrogenase (zwf) and 6-phosphogluconate dehydrogenase (gnd)” (Biotechnology for Biofuels, 2017).
# B1: Gnd (GE), 6-phosphogluconate dehydrogenase (Escherichia coli K-12) (protein)
# chain: MSKQQIGVVGMAVMGRNLALNIESRGYTVSIFNRSREKTEEVIAENPGKKLVPYYTVKEFVESLETPRRILLMVKAGAGTDAAIDSLKPYLDKGDIIIDGGNTFFQDTIRRNRELSAEGFNFIGTGVSGGEEGALKGPSIMPGGQKEAYELVAPILTKIAAVAEDGEPCVTYIGADGAGHYVKMVHNGIEYGDMQLIAEAYSLLKGGLNLTNEELAQTFTEWNNGELSSYLIDITKDIFTKKDEDGNYLVDVILDEAANKGTGKWTSQSALDLGEPLSLITESVFARYISSLKDQRVAASKVLSGPQAQPAGDKAEFIEKVRRALYLGKIVSYAQGFSQLRAASEEYNWDLNYGEIAKIFRAGCIIRAQFLQKITDAYAENPQIANLLLAPYFKQIADDYQQALRDVVAYAVQNGIPVPTFSAAVAYYDSYRAAVLPANLIQAQRDYFGAHTYKRIDKEGVFHTEWLD
# notes: full-length, C-terminal His-tag, Ni-NTA purified from E. coli, 51 kDa on SDS-PAGE
# Substrate: NC(=O)c1ccc[n+]([C@@H]2O[C@H](COP(=O)(O)OP(=O)(O)OC[C@H]3O[C@@H](n4cnc5c(N)ncnc54)[C@H](OP(=O)(O)O)[C@@H]3O)[C@@H](O)[C@H]2O)c1
# Assay: purified protein
# Format: biochemical, Escherichia coli
# Settings: co-substrate 6-phosphogluconate, general assay: Tris-HCl pH 7.5, 1 mM MgCl2, 30 °C
protein,measurement,value
B1,Km,40 µM
